Read-outs that look alike come from different tables or passages of the source. One block for each binder: values may come before it.
B2: HisFlagRec114 (natural protein)
chain: MYEYCSVVIKKYSKYTIPSFAPNGFQSMLEPPQIDKWQHLSANCTLQFRVLLMDSRQILINVVLNNSTLLENIRLPLGDNQDLIQFSCKSPIISCKYISEEFGPRMLRRFQMNLPNDVEFNRTVVSLKNLNFVLRTARTSIAQSTITSQVQGNNNGTKVCFTEGPKVSSYTNPNTQFQTQNMIMDFSQRYQEESERESNNRSNITLPHDSIQIAQQIWPNTDLNVVQSSQDLNTPMATQTVLGRPESLIVQPLEVSQSPPNTTNCLPNAENKKKKVDTTSDFTSRKEIALCKTGLLETIHIPKERESQMQSVTGLDATPTIIWSPGKDNTAKKNTSNKKNIDDKLTNPQKSGNTHTPDRNKEVLPNGTLNETRKEASPSEGLTIRVKNVNRNASRKISKRLIKEKLKDEEFMKWVNKVETVLNKMFEK

Columns and labels:
[1] = target: the molecule itself; experiment: SEC-MALS
[2] = target: the molecule itself; experiment: cross-linking
[3] = target: B2; experiment: SEC-MALS
[4] = target: T1, untagged Rec114 (S. cerevisiae, UniProt P32841 1-428); experiment: SEC-MALS
T1 sequence: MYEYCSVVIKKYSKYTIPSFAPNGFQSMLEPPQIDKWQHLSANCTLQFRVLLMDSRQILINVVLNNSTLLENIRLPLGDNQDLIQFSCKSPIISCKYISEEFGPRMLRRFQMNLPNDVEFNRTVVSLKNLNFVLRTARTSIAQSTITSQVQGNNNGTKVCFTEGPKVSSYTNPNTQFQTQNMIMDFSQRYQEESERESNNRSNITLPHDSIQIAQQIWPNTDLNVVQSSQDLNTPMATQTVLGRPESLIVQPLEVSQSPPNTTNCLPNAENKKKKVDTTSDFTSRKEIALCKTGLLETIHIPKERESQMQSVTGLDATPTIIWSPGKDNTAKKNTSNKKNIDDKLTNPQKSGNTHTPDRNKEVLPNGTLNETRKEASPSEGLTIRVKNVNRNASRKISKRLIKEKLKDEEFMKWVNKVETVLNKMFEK

[5] = target: T2, Rec114(375-428) (S. cerevisiae, UniProt P32841 375-428); experiment: SEC-MALS
T2 sequence: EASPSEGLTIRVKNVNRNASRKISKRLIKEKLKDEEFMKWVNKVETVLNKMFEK

[6] = target: the molecule itself; experiment: SEC-MALS; remark: listed apart in the source

B1: untagged wild-type Rec114(325-428) (domain or fragment)
chain: PGKDNTAKKNTSNKKNIDDKLTNPQKSGNTHTPDRNKEVLPNGTLNETRKEASPSEGLTIRVKNVNRNASRKISKRLIKEKLKDEEFMKWVNKVETVLNKMFEK
stoichiometry N [1]: 2

Binder: B2
binding result [2]: binds

stoichiometry N [3]: 2 Rec114 per Mei4
B3: MBPMei4 (natural protein)
chain: MSRGKLEDMEQKETSEVDWIICFALIQSRNPTLWKRALSRKKGDVEDVGALKSEKNLKINPRENSKHIYKWVAPFENGFLNNKSLFAHLEPIYNFLCQNKYKSFEDAVGLKELQSFSKDVSTADINNWFLPRYKILLKILSLKTKEIDFRGLSQVFQTLQILLVSHYSHRIDSDSSFKRTLIDVHVFNFIAKFLFNRILLKKNQNDPKWLQNFYDQGDGKHLCDKVDYKRLCSLHFTLIYSIINIQLIKIKTNQTFEPQILKYVSVLKLIEHILIIIESLIHVLIRFVSKHKLICINRKKAYCRVYLERELSLKKTYLKNFYSVISGVPEKELGGLLKILKIVILSLLETFESIEWQHLKPFLEKFPAHEISLQKKRKYIQAALLITAERNLIARFRLSRWFNETENI

stoichiometry N [4]: 2 Rec114 per Mei4
B4: untagged Mei4 (natural protein)
chain: MSRGKLEDMEQKETSEVDWIICFALIQSRNPTLWKRALSRKKGDVEDVGALKSEKNLKINPRENSKHIYKWVAPFENGFLNNKSLFAHLEPIYNFLCQNKYKSFEDAVGLKELQSFSKDVSTADINNWFLPRYKILLKILSLKTKEIDFRGLSQVFQTLQILLVSHYSHRIDSDSSFKRTLIDVHVFNFIAKFLFNRILLKKNQNDPKWLQNFYDQGDGKHLCDKVDYKRLCSLHFTLIYSIINIQLIKIKTNQTFEPQILKYVSVLKLIEHILIIIESLIHVLIRFVSKHKLICINRKKAYCRVYLERELSLKKTYLKNFYSVISGVPEKELGGLLKILKIVILSLLETFESIEWQHLKPFLEKFPAHEISLQKKRKYIQAALLITAERNLIARFRLSRWFNETENI

B5: coiled-coil domain of Mer2 (residues 77-227) (domain or fragment)
chain: IKVLNENSKTLCKSLNKFNQLLEQDAATNGNVKTLIKDLASQIENQLDKVSTAMLSKGDEKKTKSDSSYRQVLVEEISRYNSKITRHVTNKQHETEKSMRCTQEMLFNVGSQLEDVHKVLLSLSKDMHSLQTRQTALEMAFREKADHAYDR
stoichiometry N [1]: 4

stoichiometry N [5]: 2 Rec114 per Mei4
Binder: MSRGKLEDMEQKETSEVDWIICFALIQSRNPTLWKRALSRKKG (domain or fragment) [Mei4(1-43)]

B6: untagged Mer2 (natural protein)
chain: MVARGRTDEISTDVSEANSEHSLMITETSSPFRSIFSHSGKVANAGALEESDKQILEWAGKLELESMELRENSDKLIKVLNENSKTLCKSLNKFNQLLEQDAATNGNVKTLIKDLASQIENQLDKVSTAMLSKGDEKKTKSDSSYRQVLVEEISRYNSKITRHVTNKQHETEKSMRCTQEMLFNVGSQLEDVHKVLLSLSKDMHSLQTRQTALEMAFREKADHAYDRPDVSLNGTTLLHDMDEAHDKQRKKSVPPPRMMVTRSMKRRRSSSPTLSTSQNHNSEDNDDASHRLKRAARTIIPWEELRPDTLESEL
stoichiometry N [6]: 4

Source: article doi:10.1101/2020.02.21.960245 (bioRxiv, 2020)
